B1: Protein G Sepharose (other, UniProt P19909 303-497, looked up)
chain: TYKLILNGKTLKGETTTEAVDAATAEKVFKQYANDNGVDGEWTYDDATKTFTVTEKPEVIDASELTPAVTTYKLVINGKTLKGETTTEAVDAATAEKVFKQYANDNGVDGEWTYDDATKTFTVTEKPEVIDASELTPAVTTYKLVINGKTLKGETTTKAVDAETAEKAFKQYANDNGVDGVWTYDDATKTFTVTE
B2: cyclophilin B (CyPB) (enzyme)
chain: not shown

For experiment [1], the target named is T1, CSABP (cyclosporin A-binding protein), endogenous in MH14 cells (human, UniProt Q9H6S0 1-1430).
T1 construct: also called CSABP protein; CSABP molecule
T1 sequence: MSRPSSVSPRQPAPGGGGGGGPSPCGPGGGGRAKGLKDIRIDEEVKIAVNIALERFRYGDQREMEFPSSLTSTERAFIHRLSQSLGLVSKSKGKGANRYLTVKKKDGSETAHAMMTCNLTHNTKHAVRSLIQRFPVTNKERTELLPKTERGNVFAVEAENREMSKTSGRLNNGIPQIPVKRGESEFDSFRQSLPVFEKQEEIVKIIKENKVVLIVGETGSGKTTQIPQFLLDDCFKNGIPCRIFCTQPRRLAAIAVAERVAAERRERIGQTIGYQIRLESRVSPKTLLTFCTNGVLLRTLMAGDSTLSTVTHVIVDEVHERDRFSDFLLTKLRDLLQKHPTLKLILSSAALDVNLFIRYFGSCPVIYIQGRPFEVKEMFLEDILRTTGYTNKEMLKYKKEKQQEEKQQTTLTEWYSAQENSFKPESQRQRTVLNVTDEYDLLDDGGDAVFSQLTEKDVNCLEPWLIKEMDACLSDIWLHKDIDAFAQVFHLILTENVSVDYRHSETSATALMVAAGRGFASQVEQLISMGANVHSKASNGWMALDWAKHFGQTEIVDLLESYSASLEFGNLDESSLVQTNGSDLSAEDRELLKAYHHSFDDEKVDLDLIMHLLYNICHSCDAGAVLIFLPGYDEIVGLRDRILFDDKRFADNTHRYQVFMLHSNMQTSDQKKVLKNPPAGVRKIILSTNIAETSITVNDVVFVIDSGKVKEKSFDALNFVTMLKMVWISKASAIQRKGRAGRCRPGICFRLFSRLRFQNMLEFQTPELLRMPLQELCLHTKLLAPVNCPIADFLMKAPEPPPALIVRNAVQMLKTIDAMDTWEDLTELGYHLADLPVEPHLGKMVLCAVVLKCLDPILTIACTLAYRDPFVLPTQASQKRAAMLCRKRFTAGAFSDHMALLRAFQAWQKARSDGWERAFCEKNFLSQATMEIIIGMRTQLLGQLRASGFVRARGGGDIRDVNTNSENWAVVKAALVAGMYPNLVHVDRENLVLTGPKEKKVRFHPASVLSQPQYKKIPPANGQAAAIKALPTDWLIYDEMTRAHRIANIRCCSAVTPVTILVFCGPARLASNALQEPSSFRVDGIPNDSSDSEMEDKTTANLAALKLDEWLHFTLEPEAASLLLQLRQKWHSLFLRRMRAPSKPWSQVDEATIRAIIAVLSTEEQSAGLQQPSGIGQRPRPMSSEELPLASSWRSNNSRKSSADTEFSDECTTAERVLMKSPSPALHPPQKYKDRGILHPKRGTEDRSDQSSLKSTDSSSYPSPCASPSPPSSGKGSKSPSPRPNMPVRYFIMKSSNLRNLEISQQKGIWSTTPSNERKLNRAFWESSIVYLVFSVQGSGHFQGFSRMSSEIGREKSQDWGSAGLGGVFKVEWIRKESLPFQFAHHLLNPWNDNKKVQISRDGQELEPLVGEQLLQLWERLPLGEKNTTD
Nature of the experiment: Protein G Sepharose control precipitation from MH14 cell extract, western blot with anti-CSABP antibody. On the technique in general: Immunoblotting shows a protein as a band on a membrane.

For experiment [2], the target named is B1. Nature of the experiment: Protein G Sepharose control precipitation from MH14 cell extract, western blot with anti-CyPB antibody.

Turning to B1, the binding result in experiment [1] was “no binding”. For the molecule B2, in experiment [2], the binding result is “no binding”.

The values are drawn from patent US20110158908A1 (SAPPORO MEDICAL UNIVERSITY, published 2011).
